Laboratory results taken from the supplement of paper PMC9112550, “Optimization of the antimicrobial peptide Bac7 by deep mutational scanning” (BMC Biology, 2022).

Test system: Escherichia coli TOP10
Assay: shrunken log2 fold change of peptide-encoding DNA abundance (4.5 h post-induction vs induction); higher = less antimicrobial activity (less host growth inhibition)
Details: time post-induction: 4.5 h; library: site-saturation at positions 5, 18, 19, 20
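Also: peptides expressed intracellularly from a pBAD plasmid library in pooled LB shake-flask culture, induced with 0.3% L-arabinose, DNA abundance read by NGS, three biological replicates, DESeq2 with apeglm shrinkage.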

Row | Sequence | shrunken log2 fold change
1 | RRIRARPPRLPRPRPRPGFRPRP | 0.555
2 | RRIRKRPPRLPRPRPRPQGNPRP | 0.0216
3 | RRIRRRPPRLPRPRPRPVMCPRP | 0.0382
4 | RRIRVRPPRLPRPRPRPRIRPRP | -0.202
5 | RRIRARPPRLPRPRPRPQKEPRP | -0.0202
6 | RRIRWRPPRLPRPRPRPQCAPRP | 0.572
7 | RRIRMRPPRLPRPRPRPQRKPRP | 0.605
8 | RRIRFRPPRLPRPRPRPSMDPRP | -0.819
9 | RRIRLRPPRLPRPRPRPWFFPRP | -0.155
10 | RRIRPRPPRLPRPRPRPTESPRP | -0.041
11 | RRIRGRPPRLPRPRPRPDCLPRP | 0.975
12 | RRIRWRPPRLPRPRPRPILFPRP | -0.456
13 | RRIRARPPRLPRPRPRPMFYPRP | -0.282
14 | RRIRKRPPRLPRPRPRPSHFPRP | 0.355
15 | RRIRHRPPRLPRPRPRPYHIPRP | -0.045
16 | RRIRKRPPRLPRPRPRPGTVPRP | 0.0317
17 | RRIRFRPPRLPRPRPRPSYCPRP | -0.345
18 | RRIRKRPPRLPRPRPRPWGLPRP | -0.22
19 | RRIRERPPRLPRPRPRPTYEPRP | -1.47
20 | RRIRERPPRLPRPRPRPGMKPRP | 0.0657
21 | RRIRGRPPRLPRPRPRPRSPPRP | 0.449
22 | RRIRTRPPRLPRPRPRPCHQPRP | -0.172
23 | RRIRLRPPRLPRPRPRPITPPRP | 0.163
24 | RRIRNRPPRLPRPRPRPWTNPRP | -0.492
25 | RRIRVRPPRLPRPRPRPIKMPRP | -0.697

Row | Sequence | shrunken log2 fold change
26 | RRIRWRPPRLPRPRPRPRWQPRP | -0.0189
27 | RRIRCRPPRLPRPRPRPHWDPRP | -0.306
28 | RRIRKRPPRLPRPRPRPQAIPRP | -0.0244
29 | RRIRKRPPRLPRPRPRPCNKPRP | 0.0197
30 | RRIRLRPPRLPRPRPRPRCLPRP | 0.18
31 | RRIRNRPPRLPRPRPRPFKEPRP | -0.161
32 | RRIRWRPPRLPRPRPRPSMNPRP | 0.0339
33 | RRIRWRPPRLPRPRPRPCEGPRP | 0.00476
34 | RRIRQRPPRLPRPRPRPGMHPRP | -0.0509
35 | RRIRYRPPRLPRPRPRPINWPRP | -0.446
36 | RRIRRRPPRLPRPRPRPLDDPRP | 0.0512
37 | RRIRARPPRLPRPRPRPDKNPRP | -0.00427
38 | RRIRMRPPRLPRPRPRPGIAPRP | 1.11
39 | RRIRVRPPRLPRPRPRPGRCPRP | 0.627
40 | RRIRYRPPRLPRPRPRPTYRPRP | -0.27
41 | RRIRCRPPRLPRPRPRPRIEPRP | -0.205
42 | RRIRFRPPRLPRPRPRPVPPPRP | 0.46
43 | RRIRYRPPRLPRPRPRPVMEPRP | -0.0459
44 | RRIRWRPPRLPRPRPRPNSIPRP | -0.396
45 | RRIRLRPPRLPRPRPRPRYEPRP | -0.286
46 | RRIRPRPPRLPRPRPRPQPHPRP | 0.138
47 | RRIRTRPPRLPRPRPRPDDAPRP | -0.0135
48 | RRIRERPPRLPRPRPRPRLCPRP | -0.426
49 | RRIRIRPPRLPRPRPRPMIIPRP | -0.295
50 | RRIRQRPPRLPRPRPRPKQIPRP | -0.103

Row | Sequence | shrunken log2 fold change
51 | RRIRMRPPRLPRPRPRPAYEPRP | 0.0216
52 | RRIRGRPPRLPRPRPRPSLMPRP | 0.5
53 | RRIRIRPPRLPRPRPRPVGHPRP | -0.0495
54 | RRIRSRPPRLPRPRPRPWAMPRP | 0.0981
55 | RRIRERPPRLPRPRPRPVGIPRP | 0.144
56 | RRIRPRPPRLPRPRPRPRVWPRP | 0.482
57 | RRIRTRPPRLPRPRPRPYCKPRP | -0.129
58 | RRIRCRPPRLPRPRPRPSKCPRP | -0.266
59 | RRIRTRPPRLPRPRPRPSKEPRP | -0.598
60 | RRIRPRPPRLPRPRPRPPMFPRP | 0.0198
61 | RRIRPRPPRLPRPRPRPRIAPRP | 0.451
62 | RRIRDRPPRLPRPRPRPSNIPRP | -0.182
63 | RRIRERPPRLPRPRPRPCCWPRP | 0.185
64 | RRIRNRPPRLPRPRPRPLYRPRP | -0.332
65 | RRIRLRPPRLPRPRPRPRQIPRP | 0.211
66 | RRIRKRPPRLPRPRPRPNLKPRP | 0.286
67 | RRIRARPPRLPRPRPRPLFHPRP | -0.249
68 | RRIRIRPPRLPRPRPRPKIHPRP | -0.464
69 | RRIRERPPRLPRPRPRPHQFPRP | 0.00386
70 | RRIRMRPPRLPRPRPRPDTIPRP | 0.0143
71 | RRIRVRPPRLPRPRPRPFCWPRP | 0.163
72 | RRIRYRPPRLPRPRPRPIGRPRP | -0.0417
73 | RRIRMRPPRLPRPRPRPIYEPRP | -0.0231
74 | RRIRFRPPRLPRPRPRPIRLPRP | 0.0615
75 | RRIRDRPPRLPRPRPRPIISPRP | 0.0102

Row | Sequence | shrunken log2 fold change
76 | RRIRIRPPRLPRPRPRPVHPPRP | -0.0793
77 | RRIRTRPPRLPRPRPRPYVCPRP | -0.215
78 | RRIRPRPPRLPRPRPRPRVDPRP | 0.263
79 | RRIRGRPPRLPRPRPRPAMLPRP | 0.7
80 | RRIRHRPPRLPRPRPRPLQYPRP | -0.582
81 | RRIRYRPPRLPRPRPRPWCTPRP | -1.06
82 | RRIRERPPRLPRPRPRPKIHPRP | -0.233
83 | RRIRCRPPRLPRPRPRPFEAPRP | 0.102
84 | RRIRHRPPRLPRPRPRPGYYPRP | -0.318
85 | RRIRWRPPRLPRPRPRPLFPPRP | 0.0582
86 | RRIRNRPPRLPRPRPRPSGYPRP | 0.00359
87 | RRIRHRPPRLPRPRPRPQSEPRP | -0.314
88 | RRIRSRPPRLPRPRPRPQKMPRP | -0.122
89 | RRIRIRPPRLPRPRPRPLPTPRP | 0.0405
90 | RRIRRRPPRLPRPRPRPWICPRP | -0.0987
91 | RRIRVRPPRLPRPRPRPVLEPRP | -0.0482
92 | RRIRSRPPRLPRPRPRPTHGPRP | 0.28
93 | RRIRERPPRLPRPRPRPCKWPRP | 0.0276
94 | RRIRGRPPRLPRPRPRPDCKPRP | 0.577
95 | RRIRLRPPRLPRPRPRPTDHPRP | -0.323
96 | RRIRPRPPRLPRPRPRPARFPRP | 0.383
97 | RRIRKRPPRLPRPRPRPQKQPRP | -0.0697
98 | RRIRQRPPRLPRPRPRPAYWPRP | 0.128
99 | RRIRARPPRLPRPRPRPIHQPRP | -0.0255
100 | RRIRMRPPRLPRPRPRPVHCPRP | 0.517

Row | Sequence | shrunken log2 fold change
101 | RRIRFRPPRLPRPRPRPVLMPRP | -0.13
102 | RRIRGRPPRLPRPRPRPPIYPRP | 0.132
103 | RRIRGRPPRLPRPRPRPMAKPRP | 0.658
104 | RRIRDRPPRLPRPRPRPKPWPRP | 0.46
105 | RRIRTRPPRLPRPRPRPIAGPRP | -0.16
106 | RRIRGRPPRLPRPRPRPLGMPRP | 0.575
107 | RRIRSRPPRLPRPRPRPLHAPRP | 0.556
108 | RRIRTRPPRLPRPRPRPGRCPRP | 0.178
109 | RRIRWRPPRLPRPRPRPTPQPRP | 1.63
110 | RRIRIRPPRLPRPRPRPDGHPRP | -0.153
111 | RRIRHRPPRLPRPRPRPRHLPRP | 0.184
112 | RRIRLRPPRLPRPRPRPQWDPRP | -0.00172
113 | RRIRDRPPRLPRPRPRPHQYPRP | 0.0144
114 | RRIRLRPPRLPRPRPRPSPFPRP | -0.183
115 | RRIRGRPPRLPRPRPRPEENPRP | 1.21
116 | RRIRVRPPRLPRPRPRPVTCPRP | -0.155
117 | RRIRCRPPRLPRPRPRPQEKPRP | 0.0587
118 | RRIRKRPPRLPRPRPRPLCSPRP | 0.0457
119 | RRIRWRPPRLPRPRPRPPAEPRP | 2.93
120 | RRIRPRPPRLPRPRPRPETVPRP | 0.207
121 | RRIRGRPPRLPRPRPRPNDMPRP | -0.0212
122 | RRIRKRPPRLPRPRPRPHPGPRP | 0.293
123 | RRIRTRPPRLPRPRPRPDNKPRP | -0.272
124 | RRIRHRPPRLPRPRPRPTWFPRP | 0.17
125 | RRIRARPPRLPRPRPRPAQEPRP | 0.582

Row | Sequence | shrunken log2 fold change
126 | RRIRDRPPRLPRPRPRPRTFPRP | -0.0632
127 | RRIRMRPPRLPRPRPRPHHGPRP | -0.762
128 | RRIRVRPPRLPRPRPRPWPMPRP | 0.0297
129 | RRIRLRPPRLPRPRPRPYMIPRP | -0.449
130 | RRIRPRPPRLPRPRPRPPSEPRP | 0.447
131 | RRIRPRPPRLPRPRPRPPQCPRP | 0.228
132 | RRIRFRPPRLPRPRPRPTLRPRP | 0.0831
133 | RRIRSRPPRLPRPRPRPDIDPRP | -0.15
134 | RRIRGRPPRLPRPRPRPGLDPRP | 1.24
135 | RRIRRRPPRLPRPRPRPKKFPRP | -0.205
136 | RRIRARPPRLPRPRPRPILRPRP | 0.0733
137 | RRIRFRPPRLPRPRPRPPMKPRP | 0.0021
138 | RRIRSRPPRLPRPRPRPNHAPRP | -0.278
139 | RRIRNRPPRLPRPRPRPARGPRP | 0.86
140 | RRIRLRPPRLPRPRPRPQNIPRP | -0.512
141 | RRIRMRPPRLPRPRPRPYGCPRP | -0.341
142 | RRIRWRPPRLPRPRPRPMDWPRP | 0.482
143 | RRIRARPPRLPRPRPRPKQPPRP | 0.516
144 | RRIRMRPPRLPRPRPRPYLGPRP | -0.331
145 | RRIRERPPRLPRPRPRPCIPPRP | -0.109
146 | RRIRNRPPRLPRPRPRPETQPRP | 0.162
147 | RRIRHRPPRLPRPRPRPCVEPRP | 0.197
148 | RRIRCRPPRLPRPRPRPSHIPRP | -0.637
149 | RRIRSRPPRLPRPRPRPYFNPRP | -0.626
150 | RRIRKRPPRLPRPRPRPIMHPRP | -0.204
